Patent US20060286112A1 (published 2006)

Key:
[1] = molecular target: T1, human VLA-1 α1 subunit (CD49a), full-length, on transfected CHO cells (human, UniProt P56199 29-1179); assay: cell-based or functional assay
[2] = molecular target: T1, human VLA-1 α1 subunit (CD49a), …; assay: cell-based or functional assay; remark: listed apart in the source
[3] = molecular target: T2, human CD49a I domain E66A (human, UniProt P56199 151-364, E66A); assay: ELISA on secreted mutant I domain
T2 construct: domain: I domain; not shown: myc and His tags

[4] = molecular target: T3, human CD49a I domain with residues 91-96 VQRGGR replaced by mouse GRRGGL (human, UniProt P56199 151-364, V91G; Q92R; R96L); assay: ELISA on secreted mutant I domain
T3 construct: domain: I domain; also called V91G, Q92R, R96L; not shown: myc and His tags

[5] = molecular target: T4, human CD49a I domain K88N (human, UniProt P56199 151-364, K88N); assay: ELISA on secreted mutant I domain
T4 construct: domain: I domain; not shown: myc and His tags

[6] = molecular target: T5, human CD49a I domain E48K (human, UniProt P56199 151-364, E48K); assay: ELISA on secreted mutant I domain
T5 construct: domain: I domain; not shown: myc and His tags

[7] = molecular target: T6, human CD49a I domain I11F (human, UniProt P56199 151-364, I11F); assay: ELISA on secreted mutant I domain
T6 construct: domain: I domain; not shown: myc and His tags

[8] = molecular target: T7, human CD49a I domain K142Q (human, UniProt P56199 151-364, K142Q); assay: ELISA on secreted mutant I domain
T7 construct: domain: I domain; text prints KI42Q once; not shown: myc and His tags

[9] = molecular target: T8, human CD49a I domain S162H (human, UniProt P56199 151-364, S162H); assay: ELISA on secreted mutant I domain
T8 construct: domain: I domain; not shown: myc and His tags

[10] = molecular target: T9, human VLA-1 (alpha 1/beta 1, CD49a/CD29) on IL-2 stimulated human PBMC / T cells (human, UniProt P56199 29-1179; P05556 21-798); assay: cell-based or functional assay
[11] = molecular target: T9, human VLA-1 (alpha 1/beta 1, …); assay: cell-based or functional assay; remark: listed apart in the source
[12] = molecular target: T9, human VLA-1 (alpha 1/beta 1, …); assay: cell-based or functional assay; remark: listed apart in the source
[13] = molecular target: T10, human CD49a I domain T204A (human, UniProt P56199 151-364, T204A); assay: ELISA on secreted mutant I domain
T10 construct: domain: I domain; not shown: myc and His tags

B1: 7.22 (antibody, V domains shown)
VH: QVQLQESGPGLGKPSQTLSLTCTVSGGSISSGGHYWSWIRQHPGKGLEWIGYIYYSGSTYYNPSLKSRVTISVDTSKNQFSLKLSSVTAADTAVYYCARDDVRYGGMDVWGQGTTVTVSS
VL: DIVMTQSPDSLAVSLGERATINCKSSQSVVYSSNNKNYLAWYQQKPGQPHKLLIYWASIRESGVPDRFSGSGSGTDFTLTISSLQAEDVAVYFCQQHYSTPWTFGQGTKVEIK
IC50, adhesion of CHO-VLA-1 cells to collagen IV [1]: 410 pM
relative inhibition at an optimal concentration, CHO-VLA-1 adhesion to collagen IV [2]: > 80%

B2: 2.10 (antibody, V domains shown)
VH: EVQLVESGGGLVKPGGSLRLSCAASGFTLSSYSMNWVRQAPGKGLEWVSSISSSSSYIHYADSVKGRFTISRDNAKNSLYLQMNSLRAEDTAVYYCARAPVVFDYWGQGTLVTVSS
VL: EIVLTQSPGTLSLSPGERATLSCRASQSVSSSYLAWYQQKPGQAPRLLISGASSRATGIPDRFSGSGSGTDFTLTISRLEPEDFAVYYCQQYGGSLTWTFGQGTKVEIK
IC50, adhesion of CHO-VLA-1 cells to collagen IV [1]: 2370 pM

B3: 7.3 (antibody, V domains shown)
VH: QVQLVESGGGVVQPGRSLRLSCAASGITFSSYGMHWVRQAPGKGLEWVAVMWYEGSNKYYADSVKGRFTISRDNSKNTLYLQMNSLRAEDTAVYYCARGVLRYFDWLSYWGQGTLVTVSS
VL: EIVMTQSPATLSVSPGERATLSCRASQSVSSHLAWYQQKPGQAPRLLIYGASTRATGIPARFSGSGSGTEFTLTISSLQSEDFAVYYCQQYNNWPLTFGGGTKVEIK
IC50, adhesion of CHO-VLA-1 cells to collagen IV [1]: 940 pM

B4: 7.40 (antibody, V domains shown)
VH: QVQLQESGPGLVKPSETLSLTCTVSGGSISSHYWSWIRQPAGKGLEWIGRIYTSGSTNYNPSLKSRVTMSVDTSKNQFSLKLRSVTAADTAVYYCAREGYSSSSGHYDYYYGMDVWGQGTTVTVS
VL: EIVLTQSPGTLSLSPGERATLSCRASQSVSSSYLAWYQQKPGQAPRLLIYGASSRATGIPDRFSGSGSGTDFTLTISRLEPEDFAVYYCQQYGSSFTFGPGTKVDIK
IC50, adhesion of CHO-VLA-1 cells to collagen IV [1]: 4720 pM

B5: 2.1 (antibody, V domains shown)
VH: QVQLQESGPGLVKPSQTLSLTCTVSGGSISSGGYYWSWIRQHPGKGLEWIGYIYNSGSTYYNPSLKSRGTISADTSKNQFSLKLSSVTAADTAVYYCARGSSSYYWYFDLWGRGTLVTVSS
VL: DIQMTQSPSSMSASVGDRVTITCRASQRISSNLNWYQQKPGKAPKFLIYGASSLQSGVPSRFSGSGSGTDFTLTISSLRPEDFATYYCQQSYSTPYTFGPGTKVDIK
IC50, adhesion of CHO-VLA-1 cells to collagen IV [1]: 21400 pM

B6: 6.48 (antibody, V domains shown)
VH: EVQLVQSGAEVKKPGESLRISCKGSGYSVSSYWIGWVRQMPGKGLEWMGIIYPGDSDTRYSPSFQGQVTISADKSISTAFLQWISLKASDTAMYYCARLQGDCSGGSCYGHFDCWGQGTLVTVS
VL: DVVLTQSPLSLPVTLGQPASISCRSSQSLVNSDGDTYLSWFQQWPGQSPRRLFYEVSNWDSGVPDRFSGSGSGTDFTLKISRVEAEDVGVYYCMQGTHWLTFGGGTKVEIK
notes: human IgG2 or IgG4
binding result [3]: binds
binding result [4]: no binding
binding result [5]: binds
binding result [6]: binds
binding result [7]: binds
binding result [8]: binds
binding result [9]: binds
IC50, adhesion of CHO-VLA-1 cells to collagen IV [1]: 120 pM
% adhesion of T cells to collagen IV vs no antibody, 0.5 nM mAb, no PMA [10]: 70%
% adhesion of T cells to collagen IV vs no antibody, 5 nM mAb, no PMA [10]: 16.7%
relative inhibition at an optimal concentration, CHO-VLA-1 adhesion to collagen IV [2]: > 80%
% adhesion of IL-2 activated T cells to collagen IV vs no antibody, 10 µg/ml, +PMA [11]: 17.5%
% adhesion of IL-2 activated T cells to collagen IV vs no antibody, 10 µg/ml, -PMA [11]: 41.3%
% adhesion of T cells to collagen IV vs no antibody, 0.5 nM mAb, 10 ng/ml PMA [12]: 94.6%
% adhesion of T cells to collagen IV vs no antibody, 5 nM mAb, 10 ng/ml PMA [12]: 72.5%

B7: 6.3 (antibody, V domains shown)
VH: QVLLQESGPGLVKPSQTLSLTCTVSGGSISSGGYYWSWIRQHPGKGLEWIGYINYSGSAYYNPSLKSRVTISVDTSKNQFSLKLSSVTAADTAVYYCARDHWLLRGFDYWGQGTLVTVSS
VL: DIVMTQTPLSLSVTPGQPASISCKSSQSLLHSDGKTYLYWYLQKPGQPPQLLIYEVSNRFSGVPDRFSGSGSGTDFTLKISRVEAEDVGVYYCMQSIQLPRTFGQGTKVEIK
IC50, adhesion of CHO-VLA-1 cells to collagen IV [1]: 680 pM

B8: 4.13 (antibody, V domains shown)
VH: QVQLVQSGAEVKKPGASVKVSCKASGYTFTSYYMNWVRQAPGQGLEWMGIISPSGGSTTYAQKFQGRVTMTRDTSTSTVYMELSSLRSEDTAVYYCARTGYSGYEGYYYGLDVWGQGTTVTVSS
VL: DVVMTQSPLSQPVTLGQPASISCRSSQSLVYSDGNTYLHWFQQRPGQSPRRLIYKVSNWDSGVPDRFSGSGSGTDFTLKISRVEAEDVGVYDCMQGTHWPSTFGGGTKVEIK
IC50, adhesion of CHO-VLA-1 cells to collagen IV [1]: < 10 pM
relative inhibition at an optimal concentration, CHO-VLA-1 adhesion to collagen IV [2]: > 80%

B9: 2.11 (antibody, V domains shown)
VH: QVQLQESGPGLVKPSQTLSLTCTVSGGSINSGGYYWSWIRQHPGKGLEWIGYIFYSGSTYYNPSLKSRVNISVDTSKNQFSLKMSSVTAADTAVYYCARDQDGFDYWGQGTLVTVSS
VL: DIVMTQTPLSLPVTPGEPASISCRSSQSLLDSDDGNTYLDWYLQKPGQSPQLLIYTLSYRASGVPDRFSGSGSGTDFTLKISRVEAEDVGVYYCMQRIEFPWTFGQGTKVEIK
notes: human IgG2 or IgG4
binding result [3]: binds
binding result [4]: binds
binding result [5]: binds
binding result [6]: binds
binding result [13]: binds
binding result [7]: binds
binding result [8]: no binding
IC50, adhesion of CHO-VLA-1 cells to collagen IV [1]: 70 pM
relative inhibition at an optimal concentration, CHO-VLA-1 adhesion to collagen IV [2]: > 80%

B10: 7.34 (antibody, V domains shown)
VH: EVQLVESGGGLVKPGGSLRLSCAASGFTFSNAWMSWVRQAPGKGLEWVGRIKSKTEGGTTDNVAPVKGRFTISRDDSKNTLYLQMNSLKTEDTAVYYCTITTHYYGMDVWGQGTTVTVSS
VL: DIQMTQSPSSLSASVGDRVTITCRASQTINNYLNWYQQKPGKAPKLLIYAASSLQSGVPSRFSGSGSGTDFTLTISSLQPEDFATYSCQQSNSPPFTFGPGTKVDVK
IC50, adhesion of CHO-VLA-1 cells to collagen IV [1]: 190 pM
% adhesion of T cells to collagen IV vs no antibody, 0.5 nM mAb, no PMA [10]: 89.2%
% adhesion of T cells to collagen IV vs no antibody, 5 nM mAb, no PMA [10]: 50.6%
relative inhibition at an optimal concentration, CHO-VLA-1 adhesion to collagen IV [2]: > 80%
% adhesion of IL-2 activated T cells to collagen IV vs no antibody, 10 µg/ml, +PMA [11]: 38.3%
% adhesion of IL-2 activated T cells to collagen IV vs no antibody, 10 µg/ml, -PMA [11]: 41.3%
% adhesion of T cells to collagen IV vs no antibody, 0.5 nM mAb, 10 ng/ml PMA [12]: 98.2%
% adhesion of T cells to collagen IV vs no antibody, 5 nM mAb, 10 ng/ml PMA [12]: 89.7%

B11: 2.25 (antibody, V domains shown)
VH: QVQLQQSGPGLVKPSQTLSLTCAISGDSVSSNSAAWNWIRQSPSRGLEWLGRTYYMSKWYNDYAVSVKSRITINPDTSKNQFSLQLNSVTPEDTAVYYCARARYCGGDCYDFDYWGQGTLVTVSS
VL: DIQMTHSPSSLSASVGDRVTITCRASQSISISLNWYQQKPGNAPKLLIYAASSLQSGIPSRFSGSGSGTDFTLTISSLQPEDFATYYCQQSFSTPWTFGQGTKVEIK
IC50, adhesion of CHO-VLA-1 cells to collagen IV [1]: 74900 pM

B12: 7.73 (antibody, V domains shown)
VH: QVQLQESGPGLVKPSETLSLTCTVSGGSISSHYWSWIRQPAGKGLEWIGRVYSSGSTNSNPSLKSRVTMSVDTAKNQFSLKLSSVTAADTAVYYCAREGYDFWSDYYNYYYGMDVWGQGTTVTVS
VL: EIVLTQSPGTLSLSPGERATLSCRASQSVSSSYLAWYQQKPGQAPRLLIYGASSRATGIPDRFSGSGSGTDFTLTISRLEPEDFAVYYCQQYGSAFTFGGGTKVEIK
IC50, adhesion of CHO-VLA-1 cells to collagen IV [1]: 430 pM
relative inhibition at an optimal concentration, CHO-VLA-1 adhesion to collagen IV [2]: > 80%

B13: 7.57 (antibody, V domains shown)
VH: QVQLVQSGAEVKKPGASVRVSCKASGYTFTGYFMHWVRQAPGQGLEWMGWINPNSGGTNYAQKFQGRVTMTRDTSISTASMELSRLRSDDTAVYYCARAPLRYFDWLDYWGQGTLVTVSS
VL: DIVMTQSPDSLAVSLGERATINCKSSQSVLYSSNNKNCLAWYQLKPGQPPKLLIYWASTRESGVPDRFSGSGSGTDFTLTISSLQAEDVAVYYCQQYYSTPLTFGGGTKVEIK
IC50, adhesion of CHO-VLA-1 cells to collagen IV [1]: 3250 pM
